Reference: patent US8465735B2, “Variant form of urate oxidase and use thereof” (Savient Pharmaceuticals, Inc., priority 2005, dated 2013)

Substrate: O=c1[nH]c(=O)c2[nH]c(=O)[nH]c2[nH]1
Experiment: purified protein, by the assay type
Conditions: other: sodium borate buffer, pH 9.2, 25.0 °C

B1: Pig uricase, native (Sigma) (Sus scrofa) (protein)
chain: MAHYRNDYKKNDEVEFVRTGYGKDMIKVLHIQRDGKYHSIKEVATSVQLTLSSKKDYLHGDNSDVIPTDTIKNTVNVLAKFKGIKSIETFAVTICEHFLSSFKHVIRAQVYVEEVPWKRFEKNGVKHVHAFIYTPTGTHFCEVEQIRNGPPVIHSGIKDLKVLKTTQSGFEGFIKDQFTTLPEVKDRCFATQVYCKWRYHQGRDVDFEATWDTVRSIVLQKFAGPYDKGEYSPSVQKTLYDIQVLTLGQVPEIEDMEISLPNIHYLNIDMSKMGLINKEEVLLPLDNPYGRITGTVKRKLTSRL
**Q.** Which results are given for B1?
**A.** Km: 5.85 µM; kcat: 15 s⁻¹
